Source: patent US20260070986A1 (AFFIMED, published 2026)

What was measured:
[1] = biological target: T1, recombinant murine FcγRIIB (CD32), biotinylated (murine, UniProt P08101 30-207, limits assumed, site-directed biotinylation at AviTag); assay: SPR (Biacore T200), 37 C, biotin-captured receptor
T1 construct: also called murine CD32B; mouse CD32B
T1 sequence (looked up): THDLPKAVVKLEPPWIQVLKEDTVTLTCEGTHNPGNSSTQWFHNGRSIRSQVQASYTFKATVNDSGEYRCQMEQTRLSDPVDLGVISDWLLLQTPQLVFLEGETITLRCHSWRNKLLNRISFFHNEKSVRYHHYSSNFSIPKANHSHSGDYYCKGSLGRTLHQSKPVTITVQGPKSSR
Method: Sensor chips were pre-equilibrated in HBS-P+ running buffer for 12 hours prior to the first measurement and the detectors were normalized using BIAnormalization solution (70% w/w glycerol) according to the manufacturer's instructions.
Interaction analysis of FcRn binding was performed at pH 6.0 in PBS/0.05% Tween 20; analytes and ligands were diluted in the same buffer. […] Ligand-free surfaces in FC1 and FC3 were used as references for response signals (FC2-1, FC4-3). Interaction analysis of CD64, CD32, and murine CD16-2 binding was performed in HBS-P+ buffer and analytes and ligands were diluted in the same buffer. Biotinylated Fcγ-Receptors were captured to a density of approximately 15 to 30 RU (FC2, FC3, and FC4) before increasing concentrations (500 nM to 4000 nM) of antibody were injected, using the single-cycle kinetic mode (FC1-FC4) at a flow rate of 40 μL/min for 100 seconds followed by dissociation for 90 seconds. A zero-concentration cycle and ligand-free surface in FC1 was used for referencing of response signals (FC2-1, FC3-1, and FC4-1). Sensor chip surfaces were prepared and regenerated before and after each measurement using Biotin Capture reagent (Biotin CAPture Kit, GE Healthcare) and 6 M guanidine-HCl, 0.25 M NaOH, respectively.
Binding affinities were determined by fitting data using the steady state affinity model of the Biacore T200 Evaluation software (v3.1).

[2] = biological target: T2, CD123 on CD123+ cells (EOL-1 and other CD123+ tumour or patient cells) (human, UniProt P26951 19-378); assay: flow cytometry on CD123+ EOL-1 cells, anti-human IgG-APC detection
T2 construct: whole, on cells; also called interleukin-3 receptor
Method: To analyze binding of CD123xCD16A antibody constructs to CD123+ EOL-1 cells, CD123− A-431 cells and CD123− Karpas-299 cells by flow cytometry, 1×10⁵ cells were resuspended in 100 μL FACS buffer in round-bottom 96-well microtiter plates. After washing in FACS buffer, cells were incubated in 100 μL FACS buffer without antibodies or with titrated antibodies starting at a concentration of 100 μg/mL followed by eight 10-fold serial dilutions for 45 min on ice in the dark. After washing twice, cells were incubated with APC-conjugated goat anti-human IgG (H+L)-APC (1/200 dilution) for 30 min on ice in the dark. After washing, binding was measured by flow cytometry and mean fluorescence intensities (MFI) of cell samples were calculated and corrected for background staining using control cells stained with secondary antibodies only.

[3] = biological target: T3, human CD16A (158F) on transfected CHO cells (cAg_34) (human, UniProt P08637 17-254); assay: flow cytometry on huCD16A-transfected CHO cells, anti-human IgG-APC detection
T3 construct: Exact cell-anchored construct not described; also called huCD16A
Method: To analyze binding of different antibody constructs to CHO cells transfected with human CD16A (cAg_34), relative to CD16 expression by flow cytometry, 1-2×10⁵ were resuspended in 100 μL FACS buffer (PBS (Invitrogen, cat.: 14190-169) containing 2% heat-inactivated FCS (Invitrogen, cat.: 10270-106), and 0.1% sodium azide (Roth, Karlsruhe, Germany, cat.: A1430.0100)) in round-bottom 96-well microtiter plates. After washing in FACS buffer, cells were incubated in 50 μL FACS buffer without antibodies or with titrated antibodies starting at a concentration of 100 μg/mL followed by ten 5-fold serial dilutions for 30 min on ice in the dark. After washing twice, cells were incubated with APC-conjugated goat anti-human IgG (H+L)-APC (Dianova, cat. 109-136-088) for 30 min on ice in the dark. […] After washing, binding was measured by flow cytometry and mean fluorescence intensities (MFI) of cell samples were calculated and corrected for background staining using control cells stained with secondary antibodies only.
(§1) Equilibrium dissociation constants (KD) of antibody binding were calculated by plotting MFI values and fitting a non-linear regression model for one-site binding to hyperbolic dose-response curves using GraphPad Prism.

[4] = biological target: T3, human CD16A (158F) on transfected CHO …; assay: flow cytometry on huCD16A-transfected CHO cells (cAg_34), one-site fit of MFI, experiment 1
Method: (§2) After washing in FACS buffer, cells were incubated in 50 μL FACS buffer without antibodies or with titrated antibodies starting at a concentration of 100 μg/mL followed by ten 5-fold serial dilutions for 30 min on ice in the dark. After washing twice, cells were incubated with APC-conjugated goat anti-human IgG (H+L)-APC (Dianova, cat. 109-136-088) for 30 min on ice in the dark. […] After washing, binding was measured by flow cytometry and mean fluorescence intensities (MFI) of cell samples were calculated and corrected for background staining using control cells stained with secondary antibodies only.
as §1

[5] = biological target: T3, human CD16A (158F) on transfected CHO …; assay: flow cytometry on huCD16A-transfected CHO cells (cAg_34), one-site fit of MFI, experiment 2
Method: as §2, §1

[6] = biological target: T3, human CD16A (158F) on transfected CHO …; assay: flow cytometry on huCD16A-transfected CHO cells (cAg_34), one-site fit of MFI, mean of 3 experiments
Method: as §2, §1

[7] = biological target: T4, recombinant human neonatal Fc receptor (FcRn), biotinylated (human, UniProt P55899 24-297, site-directed biotinylation at AviTag); assay: SPR (Biacore), 37 °C, pH 6.0, biotin-captured human FcRn as ligand, steady-state affinity fit
T4 construct: also called human FcRn
Method: Affinity parameters were evaluated for interaction with human FcRn, cynomolgus FcRn or murine FcRn using a Steady State Binding model (D-F).

T3 sequence (P08637 17-254 limits assumed): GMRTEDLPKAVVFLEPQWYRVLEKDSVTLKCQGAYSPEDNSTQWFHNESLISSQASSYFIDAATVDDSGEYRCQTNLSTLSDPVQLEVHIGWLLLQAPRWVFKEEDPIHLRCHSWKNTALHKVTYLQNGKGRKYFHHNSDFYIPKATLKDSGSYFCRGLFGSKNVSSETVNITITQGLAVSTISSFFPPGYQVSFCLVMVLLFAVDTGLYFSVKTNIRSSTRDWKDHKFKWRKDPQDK
T4 sequence (P55899 24-297 limits assumed, form in doubt): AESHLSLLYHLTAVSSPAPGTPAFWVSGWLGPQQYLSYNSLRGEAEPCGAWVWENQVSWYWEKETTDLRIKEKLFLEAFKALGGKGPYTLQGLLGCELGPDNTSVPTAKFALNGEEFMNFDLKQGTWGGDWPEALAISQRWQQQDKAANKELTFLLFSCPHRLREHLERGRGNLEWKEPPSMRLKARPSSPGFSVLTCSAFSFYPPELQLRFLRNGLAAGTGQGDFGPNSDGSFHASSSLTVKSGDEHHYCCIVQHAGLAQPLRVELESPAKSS
T2 sequence (P26951 19-378): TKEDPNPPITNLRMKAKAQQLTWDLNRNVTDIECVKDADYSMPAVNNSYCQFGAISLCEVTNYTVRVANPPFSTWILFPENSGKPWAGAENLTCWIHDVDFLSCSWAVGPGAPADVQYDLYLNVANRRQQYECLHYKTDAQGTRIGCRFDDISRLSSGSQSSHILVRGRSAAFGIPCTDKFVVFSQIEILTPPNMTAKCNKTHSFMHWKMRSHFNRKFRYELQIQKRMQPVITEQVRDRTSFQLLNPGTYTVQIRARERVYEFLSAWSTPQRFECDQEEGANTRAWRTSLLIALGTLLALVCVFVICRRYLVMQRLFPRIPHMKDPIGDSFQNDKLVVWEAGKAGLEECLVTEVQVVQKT

B1: scFv-IgAb_268 (CD123-1xCD16a1) (bispecific antibody)
heavy: QVQLQQSGAEVKKPGASVKVSCKASGYTFTDYYMKWVKQSHGKSLEWMGDIIPSNGATFYNQKFKGKATLTVDRSTSTAYMELSSLRSEDTAVYYCARSHLLRASWFAYWGQGTLVTVSSASTKGPSVFPLAPSSKSTSGGTAALGCLVKDYFPEPVTVSWNSGALTSGVHTFPAVLQSSGLYSLSSVVTVPSSSLGTQTYICNVNHKPSNTKVDKKVEPKSCDKTHTCPPCPAPEFEGGPSVFLFPPKPKDTLMISRTPEVTCVVVAVSHEDPEVKFNWYVDGVEVHNAKTKPREEQYNSTYRVVSVLTVLHQDWLNGKEYKCKVSNKALPAPIEKTISKAKGQPREPQVYTLPPSREEMTKNQVSLTCLVKGFYPSDIAVEWESNGQPENNYKTTPPVLDSDGSFFLYSKLTVDKSRWQQGNVFSCSVMHEALHNHYTQKSLSLSPGGGGGSGGGGSGGGGSGGGGSGGGGSGGGGSSYELTQPLSVSVALGQTARITCGGNNIGSKSVHWYQQKPGQAPVLVIYQDKKRPSGIPERFSGSNSGNTATLTISRAQAGDEADYYCQVWDDYIVLFGCGTKLTVLGGSGGSGGSGGSGGSGGSGGSQVQLVQSGAEVKKPGASVKVSCKASGYTFTNYYMQWVRQAPGQCLEWMGIINPSGGVTSYAQKFQGRVTMTRDTSTSTVYMELSSLRSEDTAVYYCARGSAYYYDFADYWGQGTLVTVSS
light: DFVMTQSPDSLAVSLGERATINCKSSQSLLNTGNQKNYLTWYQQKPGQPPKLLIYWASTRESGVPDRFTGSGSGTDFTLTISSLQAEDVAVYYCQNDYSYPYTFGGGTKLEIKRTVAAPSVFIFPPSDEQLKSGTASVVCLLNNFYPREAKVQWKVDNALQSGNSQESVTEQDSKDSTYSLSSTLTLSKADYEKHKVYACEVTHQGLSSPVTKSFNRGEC
notes: also called AFM28; CD123xCD16A scFv-IgAb_268
[1]
  binding result: no binding (tested: 500 nM to 4000 nM)
[2]
  EC50 (read off the curve): ~0.4 nM
[3]
  EC50 (read off the curve): ~8 nM
[4]
  Kd: 17.7 nM
[5]
  Kd: 7.8 nM
[6]
  Kd: 16.3 nM
[7]
  Kd: 364 nM
